Source: article PMC5704914 (Biochemistry, 2017)

Each binder was assayed against apo-calmodulin (UniProt P0DP23 1-149) (assay: fluorescence polarisation).

Row | Binder | Kd [µM]
1 | fluorescein-labeled α11.2 IQ domain peptide AAs 1644-1668, F1648A (fluorescein covalently linked to the N-terminal amino group) peptide: not shown | 32.4
2 | fluorescein-labeled α11.2 IQ domain peptide AAs 1644-1668, K1647A (fluorescein covalently linked to the N-terminal amino group) peptide: not shown | 44.2
3 | fluorescein-labeled α11.2 IQ domain peptide AAs 1644-1668, I1654A (fluorescein covalently linked to the N-terminal amino group) peptide: not shown | 141

Now from value to binder:

Row | Kd [µM] | Binder
4 | 22.3 | fluorescein-labeled α11.2 IQ domain peptide AAs 1644-1668, Q1655A (fluorescein covalently linked to the N-terminal amino group) peptide: not shown
5 | 61.9 | fluorescein-labeled α11.2 IQ domain peptide AAs 1644-1668, Y1649A (fluorescein covalently linked to the N-terminal amino group) peptide: not shown
